Measured values: patent publication US20240398906A1

Columns and labels:
[1] = biological target: endogenous HSP70 from the mouse Ret melanoma cell line (mouse) (UniProt Q61696); assay: cell-based or functional assay
[2] = biological target: recombinant catalytic domain of human LOX (169-417) (human) (UniProt P28300); assay: ELISA, plate coated with LOX catalytic domain, detection with anti-human peroxidase antibody
recombinant HSP70 = recombinant HSP70 (UniProt P0DMV8); assay: ELISA, plate coated with recombinant HSP70, detection with anti-human peroxidase antibody
Sequence of recombinant HSP70 (P0DMV8 whole entry): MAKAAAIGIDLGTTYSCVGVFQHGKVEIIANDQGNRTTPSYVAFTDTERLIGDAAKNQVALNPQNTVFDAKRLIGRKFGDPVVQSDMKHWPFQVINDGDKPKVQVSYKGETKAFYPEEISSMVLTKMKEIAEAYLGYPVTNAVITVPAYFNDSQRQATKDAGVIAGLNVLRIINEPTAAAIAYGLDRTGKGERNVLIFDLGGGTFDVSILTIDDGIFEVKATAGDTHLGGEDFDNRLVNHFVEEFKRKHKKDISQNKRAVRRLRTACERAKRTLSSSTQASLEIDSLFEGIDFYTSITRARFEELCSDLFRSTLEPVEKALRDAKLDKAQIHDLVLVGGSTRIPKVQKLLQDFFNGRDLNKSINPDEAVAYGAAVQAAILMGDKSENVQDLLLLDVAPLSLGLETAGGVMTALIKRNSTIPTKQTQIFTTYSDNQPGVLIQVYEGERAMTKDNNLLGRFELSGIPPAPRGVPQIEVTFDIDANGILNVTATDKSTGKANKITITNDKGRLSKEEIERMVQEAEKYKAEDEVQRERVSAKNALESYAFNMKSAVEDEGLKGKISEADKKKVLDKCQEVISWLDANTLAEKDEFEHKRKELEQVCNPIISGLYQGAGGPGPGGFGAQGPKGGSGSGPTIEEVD

Sequence of recombinant catalytic domain of human LOX (169-417) (human) (P28300 169-417 limits assumed): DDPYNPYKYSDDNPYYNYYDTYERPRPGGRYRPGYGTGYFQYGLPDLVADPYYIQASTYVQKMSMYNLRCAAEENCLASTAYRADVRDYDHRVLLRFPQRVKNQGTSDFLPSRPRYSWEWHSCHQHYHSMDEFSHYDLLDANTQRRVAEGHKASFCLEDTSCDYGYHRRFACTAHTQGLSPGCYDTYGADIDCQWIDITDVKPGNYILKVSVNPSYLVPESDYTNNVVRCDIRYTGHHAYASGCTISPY
Sequence of endogenous HSP70 from the mouse Ret melanoma cell line (mouse) (Q61696 2-641): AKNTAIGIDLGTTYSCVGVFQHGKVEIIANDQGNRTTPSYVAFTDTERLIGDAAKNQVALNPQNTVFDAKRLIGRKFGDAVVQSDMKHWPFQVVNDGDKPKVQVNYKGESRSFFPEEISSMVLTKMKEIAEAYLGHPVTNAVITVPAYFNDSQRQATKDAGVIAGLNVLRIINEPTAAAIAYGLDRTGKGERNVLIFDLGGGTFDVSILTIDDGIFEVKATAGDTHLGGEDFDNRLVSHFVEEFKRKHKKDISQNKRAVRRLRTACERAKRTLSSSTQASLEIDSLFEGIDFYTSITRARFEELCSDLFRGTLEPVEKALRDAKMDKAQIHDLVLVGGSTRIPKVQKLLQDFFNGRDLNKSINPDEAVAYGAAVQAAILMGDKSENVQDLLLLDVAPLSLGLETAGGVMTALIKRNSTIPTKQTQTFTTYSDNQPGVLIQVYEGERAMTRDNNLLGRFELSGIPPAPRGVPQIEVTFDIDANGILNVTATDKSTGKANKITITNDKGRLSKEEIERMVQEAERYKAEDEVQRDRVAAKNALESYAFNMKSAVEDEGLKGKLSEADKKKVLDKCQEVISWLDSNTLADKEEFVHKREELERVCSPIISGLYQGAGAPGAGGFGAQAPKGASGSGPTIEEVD

Substance “AS2 (non-glycosylated LOX-PP fused to human IgG1 Fc) (Fc fusion)” has an ATPase activity of HSP70 in the culture media of Ret-melanoma cells (decrease against Fc) [1] of 18%, an EC50 [2] of 0.058 µM and an EC50 (recombinant HSP70) of 0.057 µM.
